Data taken from article PMC8025675.

Molecular target: low-affinity anti-HER2 scFv (scFv Kd = 210 nM)
Assay: BLI

Kd: 0.21 µM
Substance: human epidermal growth factor receptor 2 (HER2) (from UniProt P04626 23-1255)
